Assay results: patent US9114148

Target: cardiac protein phosphatase 1 (type 1 phosphatase activity of mouse hearts) (mouse)
Assay: cell-based or functional assay

- type 1 phosphatase activity: 15 % decrease
Substance: constitutively active, truncated inhibitor-1 (I-T35D; AA 1-65), mouse (from UniProt Q9ERT9 1-65)
